Target: cynomolgus CD3εδ Fc heterodimer (Cy CD3ε Fc / CD3δ Fc-HIS) (cynomolgus) (UniProt Q95LI8)
Test: BLI (ForteBio), pH 6.0

Sequence of cynomolgus CD3εδ Fc heterodimer (Cy CD3ε Fc / CD3δ Fc-HIS) (cynomolgus) (chain, as listed by the source mutant, chain 1 of 2): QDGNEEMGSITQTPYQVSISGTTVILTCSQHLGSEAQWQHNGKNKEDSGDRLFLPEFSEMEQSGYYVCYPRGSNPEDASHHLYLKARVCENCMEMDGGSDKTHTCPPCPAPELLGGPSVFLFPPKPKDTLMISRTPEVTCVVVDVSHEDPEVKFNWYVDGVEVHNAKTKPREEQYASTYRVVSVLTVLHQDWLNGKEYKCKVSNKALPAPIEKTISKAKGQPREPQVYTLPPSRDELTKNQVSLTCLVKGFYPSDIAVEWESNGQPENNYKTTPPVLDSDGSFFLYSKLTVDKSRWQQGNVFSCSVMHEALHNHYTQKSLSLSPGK
Sequence of cynomolgus CD3εδ Fc heterodimer (Cy CD3ε Fc / CD3δ Fc-HIS) (cynomolgus) (Q95LI8 22-100, stated change not applied, chain 2 of 2): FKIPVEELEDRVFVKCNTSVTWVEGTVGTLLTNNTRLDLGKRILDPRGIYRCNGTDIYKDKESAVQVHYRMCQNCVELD

Kd [µM]	kon [M⁻¹ s⁻¹]	Binder
0.0145	219000	SAD10320_P02_E05 (antibody, V domains shown) VH: QVQLVQSGAEVKKPGASVKVSCKASGFNIKDYYMHWVRQAPGQRLEWMGWIDLENANTIYDAKFQGRVTITRDTSASTAYMELSSLRSEDTAVYYCARDMHGRYFYDVWGQGTLVTVSS VL: DIVMTQSPDSLAVSLGERATINCKSSQSLLNARTGKNYLAWYQQKPGQPPKLLIYWASTRESGVPDRFSGSGSGTDFTLTISSLQAEDVAVYYCKQSEHRRTFGGGTKVEIK
0.0169	200000	SAD10320_P04_D11 (antibody, V domains shown) VH: QVQLVQSGAEVKKPGASVKVSCKASGFNIKDYYMHWVRQAPGQRLQWMGWIDLENANTIYDAKFQGRVTITRDTSASTAYMELSSLRSEDTAVYYCARDAYGHVFYDVWGQGTLVTVSS VL: DIVMTQSPDSLAVSLGERATINCKSSQSLLNARTGKNYLAWYQQKPGQPPKLLIYWASTRESGVPDRFSGSGSGTDFTLTISSLQAEDVAVYYCKQSYHHRTFGGGTKVEIK
0.0157	176000	SAD10320_P04_G11 (antibody, V domains shown) VH: QVQLVQSGAEVKKPGASVKVSCKASGFNIKDYYMHWVRQAPGQRLEWMGWIDLENANTIYDAKFQGRVTITRDTSASTAYMELSSLRSEDTAVYYCARDAYRHEFYDVWGQGTLVTVSS VL: DIVMTQSPDSLAVSLGERATINCKSSQSLLNARTGKNYLAWYQQKPGQPPKLLIYWASTRESGVPDRFSGSGSGTDFTLTISSLQAEDVAVYYCKQSYYHRTFGGGTKVEIK
0.0201	148000	SAD10320_P04_E11 (antibody, V domains shown) VH: QVQLVQSGAEVKKPGASVKVSCKASGFNIKDYYMHWVRQAPGQRLEWMGWIDLENANTIYDAKFQGRVTITRDTSASTAYMELSSLRSEDTAVYYCARDAYGHDFYDVWGQGTLVTVSS VL: DIVMTQSPDSLAVSLGERATINCKSSQSLLNARTGKNYLAWYQQKPGQPPKLLIYWASTRESGVPDRFSGSGSGTDFTLTISSLQAEDVAVYYCKQSYGHRTFGGGTKVEIK
0.0294	252000	SAD10320_P04_A11 (antibody, V domains shown) VH: QVQLVQSGAEVKKPGASVKVSCKASGFNIKDYYMHWVRQAPGQRLQWMGWIDLENANTIYDAKFQGRVTITRDTSASTAYMELSSLRSEDTAVYYCARDARHRYFYDVWGQGTLVTVSS VL: DIVMTQSPDSLAVSLGERATINCKSSQSLLNARTGKNYLAWYQQKPGQPPKLLIYWASTRESGVPDRFSGSGSGTDFTLTISSLQAEDVAVYYCKQSYSHGTFGGGTKVEIK
0.0234	265000	SAD10320_P02_D06 (antibody, V domains shown) VH: QVQLVQSGAEVKKPGASVKVSCKASGFNIKDYYMHWVRQAPGQRPAWMGWIDLENANTIYDAKFQGRVTITRDTSASTAYMELSSLRSEDTAVYYCARDAYGHGFYDVWGQGTLVTVSS VL: DIVMTQSPDSLAVSLGERATINCKSSQSLLNARTGKNYLAWYQQKPGQPPKLLIYWASTRESGVPDRFSGSGSGTDFTLTISSLQAEDVAVYYCKQSYGHRTFGGGTKVEIK
0.0316	161000	SAD10320_P03_C09 (antibody, V domains shown) VH: QVQLVQSGAEVKKPGASVKVSCEASGFNIKDYYMHWVRQAPGQRLEWMGWIDLENANTIYDAKFQGRVTITRDTSASTAYMELSSLRSEDTAVYYCARDAYGHVFYDVWGQGTLVTVSS VL: DIVMTQSPDSLAVSLGERATINCKSSQSLLNARTGKNYLAWYQQKPGQPPKLLIYWASTRESGVPDRFSGSGSGTDFTLTISSLQAEDVAVYYCKQSYLHRTFGGGTKVEIK
0.323	46900	SAD10320_P03_C08 (antibody, V domains shown) VH: QVQLVQSGAEVKKPGASVKVSCEASGFNIKDYYMHWVRQAPGQTLAWMGWIDLENANTIYDAKFQGRVTITRDTSASTAYMELSSLRSEDTAVYYCARDAYGHVFYDVWGQGTLVTVSS VL: DIVMTQSPDSLAVSLGERATINCKSSQSLLNARTGKNYLAWYQQKPGQPPKLLIYWASTRESGVPDRFSGSGSGTDFTLTISSLQAEDVAVYYCKQSYLHRTFGGGTKVEIK
0.0139	186000	SAD10320_P04_D12 (antibody, V domains shown) VH: QVQLVQSGAEVKKPGASVKVSCKASGFNIKDYYMHWVRQAPGQRLEWMGWIDLENANTIYDAKFQGRVTITRDTSASTAYMELSSLRSEDTAVYYCARDAYGHDFYDVWGQGTLVTVSS VL: DIVMTQSPDSLAVSLGERATINCKSSQSLLNARTGKNYLAWYQQKPGQPPKLLIYWASTRESGVPDRFSGSGSGTDFTLTISSLQAEDVAVYYCKQSYSHRTFGGGTKVEIK
0.00776	249000	SAD10320_P03_D08 (antibody, V domains shown) VH: QVQLVQSGAEVKKPGASVKVSCKASGFNIKDYYMHWVRQAPGQRLEWMGWIDLENANTIYDAKFQGRVTITRDTSASTAYMELSSLRSEDTAVYYCARDAYGHQFYDVWGQGTLVTVSS VL: DIVMTQSPDSLAVSLGERATINCKSSQSLLNARTGKNYLAWYQQKPGQPPKLLIYWASTRESGVPDRFSGSGSGTDFTLTISSLQAEDVAVYYCKQSYHTRTFGGGTKVEIK
0.24	69700	SAD10320_P04_A12 (antibody, V domains shown) VH: QVQLVQSGAEVKKPGASVKVSCKASGFNIKDYYMHWVRQAPGQRLEWMGWIDLENANTIYDAKFQGRVTITRDTSASTAYMELSSLRSEDTAVYYCARDAYGHVFYDVWGQGTLVTVSS VL: DIVMTQSPDSLAVSLGERATINCKSSQSLLNARTGKNYLAWYQQKPGQPPKLLIYWASTRESGVPDRFSGSGSGTDFTLTISSLQAEDVAVYYCKQSYHHRTFGGGTKVEIK
0.0116	228000	SAD10320_P02_A06 (antibody, V domains shown) VH: QVQLVQSGAEVKKPGASVKVSCKASGFNIKDYYMHWVRQAPGQRLPWMGWIDLENANTIYDAKFQGRVTITRDTSASTAYMELSSLRSEDTAVYYCARDAHERYFYDVWGQGTLVTVSS VL: DIVMTQSPDSLAVSLGERATINCKSSQSLLNARTGKNYLAWYQQKPGQPPKLLIYWASTRESGVPDRFSGSGSGTDFTLTISSLQAEDVAVYYCKQSHLRRTFGGGTKVEIK
0.00851	281000	SAD10320_P04_F10 (antibody, V domains shown) VH: QVQLVQSGAEVKKPGASVKVSCKASGFNIKDYYMHWVRQAPGQTLDWMGWIDLENANTIYDAKFQGRVTITRDTSASTAYMELSSLRSEDTAVYYCARDAYGRNHYDVWGQGTLVTVSS VL: DIVMTQSPDSLAVSLGERATINCKSSQSLLNARPGKNYLAWYQQKPGQPPKLLIYWASTRESGVPDRFSGSGSGTDFTLTISSLQAEDVAVYYCKQSYLHRTFGGGTKVEIK
0.0338	207000	SAD10320_P03_E07 (antibody, V domains shown) VH: QVQLVQSGAEVKKPGASVKVSCKASGFNIKDYYMHWVRQAPGQRLEWMGWIDLENANTIYDAKFQGRVTITRDTSASTAYMELSSLRSEDTAVYYCARDAVHRYFYDVWGQGTLVTVSS VL: DIVMTQSPDSLAVSLGERATINCKSSQSLLNARTGKNYLAWYQQKPGQPPKLLIYWASTRESGVPDRFSGSGSGTDFTLTISSLQAEDVAVYYCKQSYHPRTFGGGTKVEIK
0.015	179000	SAD10320_P03_F08 (antibody, V domains shown) VH: QVQLVQSGAEVKKPGASVKVSCKASGFNIKDYYMHWVRQAPGQRLEWMGWIDLENANTIYDAKFQGRVTITRDTSASTAYMELSSLRSEDTAVYYCARDAYGHDFYDVWGQGTLVTVSS VL: DIVMTQSPDSLAVSLGERATINCKSSQSLLNARPGKNYLAWYQQKPGQPPKLLIYWASTRESGVPDRFSGSGSGTDFTLTISSLQAEDVAVYYCKQSYSRRTFGGGTKVEIK
0.181	82700	SAD10320_P03_H08 (antibody, V domains shown) VH: QVQLVQSGAEVKKPGASVKVSCKASGFNIKDYYMHWVRQAPGQRLEWMGWIDLENANTIYDAKFQGRVTITRDTSASTAYMELSSLRSEDTAVYYCARDAYGHVFYDVWGQGTLVTVSS VL: DIVMTQSPDSLAVSLGERATINCKSSQSLLNASTAKNYLAWYQQKPGQPPKLLIYWASTRESGVPDRFSGSGSGTDFTLTISSLQAEDVAVYYCKQSYRHRTFGGGTKVEIK
0.0105	268000	SAD10320_P02_H06 (antibody, V domains shown) VH: QVQLVQSGAEVKKPGASVKVSCKASGFNIKDYYMHWVRQAPGQRLEWMGWIDLENANTIYDAKFQGRVTITRDTSASTAYMELSSLRSEDTAVYYCARDAYGRNHYDVWGQGTLVTVSS VL: DIVMTQSPDSLAVSLGERATINCKSSQSLLNARTGKSYLAWYQQKPGQPPKLLIYWASTRESGVPDRFSGSGSGTDFTLTISSLQAEDVAVYYCKQSYVHRTFGGGTKVEIK
0.168	111000	SAD10320_P04_C10 (antibody, V domains shown) VH: QVQLVQSGAEVKKPGASVKVSCKASGFNIKDYYMHWVRQAPGQRLEWMGWIDLENANTIYDAKFQGRVTITRDTSASTAYMELSSLRSEDTAVYYCARDAYGHAFYDVWGQGTLVTVSS VL: DIVMTQSPDSLAVSLGERATINCKSSQSLLNARTGKNYLAWYQQKPGQPPKLLIYWASTRESGVPDRFSGSGSGTDFTLTISSLQAEDVAVYYCKQSYHQRTFGGGTKVEIK
0.00955	201000	SAD10320_P04_F11 (antibody, V domains shown) VH: QVQLVQSGAEVKKPGASVKVSCKASGFNIKDYYMHWVRQAPGQRLEWMGWIDLENANTIYDAKFQGRVTITRDTSASTAYMELSSLRSEDTAVYYCARDAYGHEFYDVWGQGTLVTVSS VL: DIVMTQSPDSLAVSLGERATINCKSSQSLLNARTGKNYLAWYQQKPGQPPKLLIYWASTRESGVPDRFSGSGSGTDFTLTISSLQAEDVAVYYCKQGHSRRTFGGGTKVEIK
0.037	195000	SAD10320_P03_F09 (antibody, V domains shown) VH: QVQLVQSGAEVKKPGASVKVSCKASGFNIKDYYMHWVRQAPGQRLEWMGWIDLENANTIYDAKFQGRVTITRDTSASTAYMELSSLRSEDTAVYYCARDAYGHDFYDVWGQGTLVTVSS VL: DIVMTQSPDSLAVSLGERATINCKSSQSLLNARTGKNYLAWYQQKPGQPPKLLIYWASTRESGVPDRFSGSGSGTDFTLTISSLQAEDVAVYYCKQSYHRRTFGGGTKVEIK
0.0146	199000	SAD10320_P03_A09 (antibody, V domains shown) VH: QVQLVQSGAEVKKPGASVKVSCKASGFNIKDYYMHWVRQAPGQRLEWMGWIDLENANTIYDAKFQGRVTITRDTSASTAYMELSSLRSEDTAVYYCARDAYGHVFYDVWGQGTLVTVSS VL: DIVMTQSPDSLAVSLGERATINCKSSQSLLNARTGKNYLAWYQQKPGQPPKLLIYWASTRESGVPDRFSGSGSGTDFTLTISSLQAEDVAVYYCKQSSHRRTFGGGTKVEIK
